# Reference: patent publication US20190185537A1 (AstraZeneca / MedImmune, published 2019)
# Read-outs that look alike come from different tables or passages of the source. Numbered stars: 1 amine (or outer) side, 2 acyl side, 3 side chain; on linkers, the order of the positions; unused ones are H or OH. Side chains are listed from the residue outwards. Ends that are not written are not given here. * marks the point of attachment. γGlu = O=C(O)[C@H](CCC(=O)[*:2])N[*:1]; Palmitoyl = CCCCCCCCCCCCCCCC(=O)*
# T1: human glucose-dependent insulinotropic peptide (gastric inhibitory polypeptide) receptor (human) (UniProt P48546)
# T1 sequence (looked up): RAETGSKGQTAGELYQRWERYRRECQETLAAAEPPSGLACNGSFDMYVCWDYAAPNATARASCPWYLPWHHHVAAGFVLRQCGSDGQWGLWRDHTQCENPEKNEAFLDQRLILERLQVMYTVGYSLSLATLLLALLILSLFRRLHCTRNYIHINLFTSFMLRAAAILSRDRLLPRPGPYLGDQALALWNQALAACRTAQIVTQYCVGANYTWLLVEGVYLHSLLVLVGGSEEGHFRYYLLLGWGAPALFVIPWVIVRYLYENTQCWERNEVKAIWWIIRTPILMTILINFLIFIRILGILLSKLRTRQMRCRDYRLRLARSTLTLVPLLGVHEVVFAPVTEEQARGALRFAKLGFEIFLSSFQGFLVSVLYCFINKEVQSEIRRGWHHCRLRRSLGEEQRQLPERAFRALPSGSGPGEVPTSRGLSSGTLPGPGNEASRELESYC
# T2: human glucose-dependent insulinotropic peptide (gastric inhibitory polypeptide) receptor (human, UniProt P48546 22-466)
# T2 sequence (looked up): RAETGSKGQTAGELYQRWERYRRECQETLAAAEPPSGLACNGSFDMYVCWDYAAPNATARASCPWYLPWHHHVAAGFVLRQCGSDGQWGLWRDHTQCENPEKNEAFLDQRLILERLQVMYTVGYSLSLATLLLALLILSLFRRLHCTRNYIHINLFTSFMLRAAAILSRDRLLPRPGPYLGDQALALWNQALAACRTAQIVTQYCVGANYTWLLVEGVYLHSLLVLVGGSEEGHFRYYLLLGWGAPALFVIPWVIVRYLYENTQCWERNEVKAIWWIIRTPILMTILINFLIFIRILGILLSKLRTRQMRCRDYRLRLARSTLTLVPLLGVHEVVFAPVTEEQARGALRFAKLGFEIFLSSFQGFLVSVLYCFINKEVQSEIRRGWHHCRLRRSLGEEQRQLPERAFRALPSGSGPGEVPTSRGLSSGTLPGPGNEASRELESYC
# T3: mouse GLP-1 receptor (mouse, UniProt O35659 22-463)
# T3 sequence (looked up): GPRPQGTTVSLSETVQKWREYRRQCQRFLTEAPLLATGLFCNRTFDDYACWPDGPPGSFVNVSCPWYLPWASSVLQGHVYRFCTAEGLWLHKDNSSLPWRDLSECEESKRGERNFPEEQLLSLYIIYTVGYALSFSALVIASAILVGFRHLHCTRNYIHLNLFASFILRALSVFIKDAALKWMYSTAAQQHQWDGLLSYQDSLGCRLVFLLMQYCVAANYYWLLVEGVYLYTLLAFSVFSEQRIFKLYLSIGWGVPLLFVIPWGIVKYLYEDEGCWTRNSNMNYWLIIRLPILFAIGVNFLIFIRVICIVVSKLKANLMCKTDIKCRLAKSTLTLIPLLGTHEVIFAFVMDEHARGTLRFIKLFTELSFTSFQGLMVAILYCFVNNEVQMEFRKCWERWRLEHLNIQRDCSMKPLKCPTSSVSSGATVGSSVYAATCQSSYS
# What was measured:
# Experiment in all cases: cell-based or functional assay
# human glucagon receptor [1] = molecular target: T4, human glucagon receptor (human, UniProt P47871 26-477)
# human GLP-1 receptor [2] = molecular target: T5, human GLP-1 receptor (human, UniProt P43220 24-463)
# Target sequence in this assay (P43220 24-463): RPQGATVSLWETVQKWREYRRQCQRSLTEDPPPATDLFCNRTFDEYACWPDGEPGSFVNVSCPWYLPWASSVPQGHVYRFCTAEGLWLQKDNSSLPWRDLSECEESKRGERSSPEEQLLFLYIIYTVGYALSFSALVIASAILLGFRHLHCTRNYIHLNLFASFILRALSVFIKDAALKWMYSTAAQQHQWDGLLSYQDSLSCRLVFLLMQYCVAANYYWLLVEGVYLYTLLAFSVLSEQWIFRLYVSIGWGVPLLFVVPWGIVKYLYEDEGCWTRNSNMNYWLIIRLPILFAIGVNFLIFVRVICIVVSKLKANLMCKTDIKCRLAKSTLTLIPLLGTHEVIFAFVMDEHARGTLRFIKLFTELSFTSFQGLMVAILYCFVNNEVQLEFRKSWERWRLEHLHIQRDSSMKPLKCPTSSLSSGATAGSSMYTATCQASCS
# [3] = molecular target: T1, human glucose-dependent insulinotropic peptide (gastric inhibitory polypeptide) receptor (human)
# human glucagon receptor [4] = molecular target: T4, human glucagon receptor; remark: listed apart in the source
# human GLP-1 receptor [5] = molecular target: T5, human GLP-1 receptor; remark: listed apart in the source
# [6] = molecular target: T2, human glucose-dependent insulinotropic …
# human glucagon receptor [7] = molecular target: T4, human glucagon receptor; remark: listed apart in the source
# human GLP-1 receptor [8] = molecular target: T5, human GLP-1 receptor; remark: listed apart in the source
# [9] = molecular target: T2, human glucose-dependent insulinotropic …; remark: listed apart in the source
# human glucagon receptor [10] = molecular target: T4, human glucagon receptor; remark: listed apart in the source
# human GLP-1 receptor [11] = molecular target: T5, human GLP-1 receptor; remark: listed apart in the source
# mouse GLP-1 receptor = molecular target: T3, mouse GLP-1 receptor
# mouse glucagon receptor = mouse glucagon receptor (mouse, UniProt Q61606 27-485)
# rat glucagon receptor = rat glucagon receptor (rat, UniProt P30082 27-485)
# Sequence of rat glucagon receptor (P30082 27-485): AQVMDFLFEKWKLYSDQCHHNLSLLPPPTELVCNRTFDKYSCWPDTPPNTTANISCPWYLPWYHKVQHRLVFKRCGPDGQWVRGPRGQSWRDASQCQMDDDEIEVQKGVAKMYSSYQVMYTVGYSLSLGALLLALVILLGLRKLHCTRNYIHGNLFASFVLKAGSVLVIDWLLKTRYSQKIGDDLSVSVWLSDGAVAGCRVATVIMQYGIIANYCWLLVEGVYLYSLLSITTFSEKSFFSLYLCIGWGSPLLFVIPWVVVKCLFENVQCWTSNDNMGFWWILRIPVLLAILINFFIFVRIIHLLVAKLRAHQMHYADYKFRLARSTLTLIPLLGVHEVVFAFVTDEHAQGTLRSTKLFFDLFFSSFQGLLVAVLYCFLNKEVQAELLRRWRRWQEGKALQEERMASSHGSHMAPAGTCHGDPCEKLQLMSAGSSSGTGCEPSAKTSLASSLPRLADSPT
# T4 sequence (P47871 26-477): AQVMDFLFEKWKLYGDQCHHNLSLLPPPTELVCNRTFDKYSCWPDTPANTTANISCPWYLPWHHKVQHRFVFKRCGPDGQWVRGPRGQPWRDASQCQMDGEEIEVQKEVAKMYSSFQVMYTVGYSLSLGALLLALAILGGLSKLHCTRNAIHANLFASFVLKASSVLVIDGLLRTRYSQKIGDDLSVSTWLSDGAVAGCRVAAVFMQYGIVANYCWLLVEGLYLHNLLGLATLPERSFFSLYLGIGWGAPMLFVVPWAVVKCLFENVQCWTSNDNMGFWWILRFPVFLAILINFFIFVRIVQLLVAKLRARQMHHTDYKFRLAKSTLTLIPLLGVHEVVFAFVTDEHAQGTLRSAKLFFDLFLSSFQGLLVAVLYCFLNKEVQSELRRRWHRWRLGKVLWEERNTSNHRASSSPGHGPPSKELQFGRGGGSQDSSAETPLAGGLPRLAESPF
# Sequence of mouse glucagon receptor (Q61606 27-485): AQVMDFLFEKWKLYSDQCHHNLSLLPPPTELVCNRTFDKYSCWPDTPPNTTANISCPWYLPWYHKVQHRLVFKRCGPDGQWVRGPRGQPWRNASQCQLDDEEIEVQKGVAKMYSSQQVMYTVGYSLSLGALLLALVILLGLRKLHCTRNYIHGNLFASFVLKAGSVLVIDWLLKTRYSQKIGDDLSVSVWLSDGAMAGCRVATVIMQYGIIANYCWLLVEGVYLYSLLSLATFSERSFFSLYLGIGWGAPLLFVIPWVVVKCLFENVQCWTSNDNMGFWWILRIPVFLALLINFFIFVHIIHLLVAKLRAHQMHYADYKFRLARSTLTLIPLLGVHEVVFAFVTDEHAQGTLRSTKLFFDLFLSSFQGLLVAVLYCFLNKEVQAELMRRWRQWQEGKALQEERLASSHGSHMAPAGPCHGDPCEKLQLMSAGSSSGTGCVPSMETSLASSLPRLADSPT
cAMP EC50 (assay 1) (human glucagon receptor [1]) [nM],cAMP EC50 (assay 1) (human GLP-1 receptor [2]) [nM],cAMP EC50 (assay 1) [3] [nM],cAMP EC50 (assay 1) (human glucagon receptor [4]) [nM],cAMP EC50 (assay 1) (human GLP-1 receptor [5]) [nM],cAMP EC50 (assay 1) [6] [nM],cAMP EC50 (assay 1) (human glucagon receptor [7]) [nM],cAMP EC50 (assay 1) (human GLP-1 receptor [8]) [nM],cAMP EC50 (assay 1) [9] [nM],"cAMP EC50 (assay 2, 4.4% human serum albumin) (human glucagon receptor [10]) [nM]","cAMP EC50 (assay 2, 4.4% human serum albumin) (human GLP-1 receptor [11]) [nM]","cAMP EC50 (assay 2, 3.2% mouse serum albumin) (mouse GLP-1 receptor) [nM]","cAMP EC50 (assay 2, 3.2% mouse serum albumin) (mouse glucagon receptor) [nM]","cAMP EC50 (assay 2, 3.2% rat serum albumin) (rat glucagon receptor) [nM]",Binder
0.0277,0.0422,40.7,,,,,,,,,,,,HSQGTFTSDYSEYK([γGlu-Palmitoyl])DSRRAQDFVQWLVAGG-NH2 (N-terminus assumed; SMILES CCCCCCCCCCCCCCCC(=O)N[C@@H](CCC(=O)NCCCC[C@H](NC(=O)[C@H](Cc1ccc(O)cc1)NC(=O)[C@H](CCC(=O)O)NC(=O)[C@H](CO)NC(=O)[C@H](Cc1ccc(O)cc1)NC(=O)[C@H](CC(=O)O)NC(=O)[C@H](CO)NC(=O)[C@@H](NC(=O)[C@H](Cc1ccccc1)NC(=O)[C@@H](NC(=O)CNC(=O)[C@H](CCC(N)=O)NC(=O)[C@H](CO)NC(=O)[C@@H](N)Cc1c[nH]cn1)[C@@H](C)O)[C@@H](C)O)C(=O)N[C@@H](CC(=O)O)C(=O)N[C@@H](CO)C(=O)N[C@@H](CCCNC(=N)N)C(=O)N[C@@H](CCCNC(=N)N)C(=O)N[C@@H](C)C(=O)N[C@@H](CCC(N)=O)C(=O)N[C@@H](CC(=O)O)C(=O)N[C@@H](Cc1ccccc1)C(=O)N[C@H](C(=O)N[C@@H](CCC(N)=O)C(=O)N[C@@H](Cc1c[nH]c2ccccc12)C(=O)N[C@@H](CC(C)C)C(=O)N[C@H](C(=O)N[C@@H](C)C(=O)NCC(=O)NCC(N)=O)C(C)C)C(C)C)C(=O)O) [g731]
,,,0.217,0.077,130,0.362,0.1,609,53.6,6.54,15,576,,HGQGTFTSDYSKYLDSK([γGlu-Palmitoyl])RAQDFVQWLVAGG-NH2 (N-terminus assumed; SMILES CCCCCCCCCCCCCCCC(=O)N[C@@H](CCC(=O)NCCCC[C@H](NC(=O)[C@H](CO)NC(=O)[C@H](CC(=O)O)NC(=O)[C@H](CC(C)C)NC(=O)[C@H](Cc1ccc(O)cc1)NC(=O)[C@H](CCCCN)NC(=O)[C@H](CO)NC(=O)[C@H](Cc1ccc(O)cc1)NC(=O)[C@H](CC(=O)O)NC(=O)[C@H](CO)NC(=O)[C@@H](NC(=O)[C@H](Cc1ccccc1)NC(=O)[C@@H](NC(=O)CNC(=O)[C@H](CCC(N)=O)NC(=O)CNC(=O)[C@@H](N)Cc1c[nH]cn1)[C@@H](C)O)[C@@H](C)O)C(=O)N[C@@H](CCCNC(=N)N)C(=O)N[C@@H](C)C(=O)N[C@@H](CCC(N)=O)C(=O)N[C@@H](CC(=O)O)C(=O)N[C@@H](Cc1ccccc1)C(=O)N[C@H](C(=O)N[C@@H](CCC(N)=O)C(=O)N[C@@H](Cc1c[nH]c2ccccc12)C(=O)N[C@@H](CC(C)C)C(=O)N[C@H](C(=O)N[C@@H](C)C(=O)NCC(=O)NCC(N)=O)C(C)C)C(C)C)C(=O)O) [G380]
,,,0.0126,0.0083,22,,,,,0.15,0.096,1.1,87.1,HSQGTFTSDKSSYLDSRSARDFVAWLEAGG (X10 = K(gE-palm); C-terminal amide) [G865]
